Reference: the supplement of paper PMC10126150
± gives the standard deviation of the averaged measurements.

Tested on: ATP
Test: switch fluorescence ratio, 500 uM ATP over buffer (Cy3 cluster intensity, sum of 5 cycles each) (fold (ratio)); higher = stronger signal-on switching upon ATP binding; sequences stand for … in TCGTCGGCAGCGTCAGATGTGTATAAGAGACAGTTTTTTTTTTTTTTTTTTTTTTTTT…TC
Conditions: aptamer strand: ATP DNA aptamer (quencher-CACCTGGGGGAGTATTGCGGAGGAAGG + anchor), 100 nM annealed; ATP concentration: 500 uM
Summary of the method: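 Clusters carrying Cy3-labelled switching strands on a modified Illumina MiSeq flow-cell were annealed to 100 nM quencher-labelled ATP aptamer and imaged in selection buffer. They were imaged again after 15 min with 500 uM ATP at 22 °C, over five buffer/ATP cycles with NaOH stripping and re-annealing in between. For each cluster, the fluorescence ratio is the summed Cy3 intensity of the target cycles divided by that of the buffer cycles, averaged per switch-domain sequence. Clusters outside 100-1000 RFU were left out.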
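Further: ATP exposure 15 min at 22 °C before imaging.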

Sequence | switch fluorescence ratio
TTTTAATTCC | 1.02 ± 0.038
TTTTAATTGG | 1.01 ± 0.066
TTTTAATTTG | 0.994 ± 0.04
TTTTACAAGA | 0.996 ± 0.043
TTTTACACAT | 1.025 ± 0.0057
TTTTACAGCA | 1.04 ± 0.03
TTTTACAGTA | 1.07 ± 0.022
TTTTACATTT | 1 ± 0.057
TTTTACCCAG | 1.11 ± 0.012
TTTTACCCGC | 1.11 ± 0.078
TTTTACCCGG | 1.04 ± 0.029
TTTTACGACA | 1.15 ± 0.014
TTTTACGCCG | 1.09 ± 0.041
TTTTACGCTT | 1.04 ± 0.017
TTTTACGGTT | 1.03 ± 0.069
TTTTACGTAG | 1.09 ± 0.035
TTTTACTATT | 0.996 ± 0.041
TTTTAGAAA | 1.02 ± 0.07
TTTTAGAGGT | 0.96 ± 0.033
TTTTAGCCAG | 1.01 ± 0.032
TTTTAGGAGA | 1.02 ± 0.026
TTTTAGGCCT | 1.045 ± 0.0027
TTTTAGGCTC | 1.03 ± 0.039
TTTTAGGGCG | 0.976 ± 0.048
TTTTAGGTAC | 1.021 ± 0.0019

Sequence | switch fluorescence ratio
TTTTAGGTTC | 1.01 ± 0.018
TTTTAGTACA | 1 ± 0.048
TTTTAGTATA | 1.02 ± 0.045
TTTTAGTATG | 1 ± 0.02
TTTTAGTGCT | 1.006 ± 0.0065
TTTTAGTTGT | 0.994 ± 0.032
TTTTATACCA | 1.04 ± 0.039
TTTTATACGG | 0.9874 ± 0.0087
TTTTATAGAC | 1.04 ± 0.026
TTTTATCATG | 0.9758 ± 0.0028
TTTTATGTTG | 1.01 ± 0.04
TTTTATTATT | 0.967 ± 0.01
TTTTATTCGT | 1.01 ± 0.025
TTTTATTGCG | 0.995 ± 0.011
TTTTCAAATA | 1.01 ± 0.061
TTTTCAAATT | 1.01 ± 0.028
TTTTCAATGA | 0.994 ± 0.041
TTTTCAGCAA | 2.59 ± 1
TTTTCAGGAG | 1.03 ± 0.016
TTTTCATGAG | 1.01 ± 0.012
TTTTCATTAT | 1.046 ± 0.0066
TTTTCATTCA | 1.023 ± 0.0072
TTTTCATTTT | 1.05 ± 0.11
TTTTCCACGA | 1.3 ± 0.35
TTTTCCAGTT | 0.998 ± 0.029

Sequence | switch fluorescence ratio
TTTTCCGCCC | 3.08 ± 2.9
TTTTCCGCTT | 1.55 ± 0.69
TTTTCGAAAA | 1.03 ± 0.075
TTTTCGATCT | 1 ± 0.013
TTTTCGCCGA | 1.03 ± 0.057
TTTTCGGCCC | 1.01 ± 0.026
TTTTCGTGCA | 1.03 ± 0.046
TTTTCTACAG | 1 ± 0.022
TTTTCTCACG | 1.12 ± 0.11
TTTTCTGTCC | 1.03 ± 0.012
TTTTCTGTCG | 1.06 ± 0.063
TTTTCTGTTT | 0.996 ± 0.047
TTTTCTTAGA | 0.977 ± 0.029
TTTTCTTAGT | 0.974 ± 0.021
TTTTCTTATG | 0.96 ± 0.013
TTTTCTTGGG | 1.03 ± 0.071
TTTTCTTTT | 1.02 ± 0.024
TTTTCTTTTC | 1.09 ± 0.084
TTTTCTTTTG | 1 ± 0.024
TTTTGAAAAG | 1.01 ± 0.019
TTTTGAAATG | 0.965 ± 0.017
TTTTGAACCA | 1.05 ± 0.057
TTTTGAAGGG | 1 ± 0.021
TTTTGACCGT | 0.973 ± 0.037
TTTTGACGTG | 0.991 ± 0.013

Sequence | switch fluorescence ratio
TTTTGACTTA | 1.04 ± 0.034
TTTTGAGATG | 0.999 ± 0.024
TTTTGAGCAT | 1.07 ± 0.12
TTTTGAGCTG | 1.02 ± 0.029
TTTTGAGGTC | 0.986 ± 0.064
TTTTGATACT | 1.0096 ± 0.00024
TTTTGATGG | 0.995 ± 0.036
TTTTGATTAA | 1.02 ± 0.041
TTTTGATTAG | 1.006 ± 0.0015
TTTTGATTGT | 1.01 ± 0.055
TTTTGCAATT | 1.98 ± 1.3
TTTTGCACGG | 1.04 ± 0.0077
TTTTGCGAAA | 1.55 ± 0.9
TTTTGCGGGG | 1.08 ± 0.15
TTTTGGAATT | 1.04 ± 0.16
TTTTGGACCT | 1.3 ± 0.0093
TTTTGGAGTA | 1.02 ± 0.047
TTTTGGATCT | 0.982 ± 0.023
TTTTGGATGT | 0.984 ± 0.048
TTTTGGCGGG | 0.983 ± 0.022
TTTTGGCGGT | 0.971 ± 0.055
TTTTGGGGAC | 0.988 ± 0.043
TTTTGGGGGA | 0.999 ± 0.04
TTTTGGGGTC | 1.02 ± 0.023
TTTTGGGTAC | 0.995 ± 0.04

Sequence | switch fluorescence ratio
TTTTGGGTGC | 1.08 ± 0.089
TTTTGGTAAA | 1 ± 0.038
TTTTGGTAGG | 1.02 ± 0.02
TTTTGGTCAT | 0.962 ± 0.053
TTTTGGTCTC | 0.985 ± 0.036
TTTTGGTGCG | 0.986 ± 0.041
TTTTGGTTTA | 1 ± 0.011
TTTTGTACAA | 1.04 ± 0.059
TTTTGTACGG | 1.01 ± 0.018
TTTTGTAGGT | 0.973 ± 0.056
TTTTGTGAAT | 0.9561 ± 0.0045
TTTTGTGGGC | 1.01 ± 0.055
TTTTGTTACT | 1.01 ± 0.026
TTTTGTTAGC | 1.01 ± 0.03
TTTTGTTATA | 0.9783 ± 0.0036
TTTTGTTGGT | 1 ± 0.028
TTTTGTTGTC | 0.984 ± 0.037
TTTTGTTTAG | 0.992 ± 0.021
TTTTGTTTGG | 1.02 ± 0.041
TTTTTAAAAT | 1.08 ± 0.22
TTTTTAAACA | 1.01 ± 0.068
TTTTTAAACG | 0.995 ± 0.014
TTTTTAAATA | 0.986 ± 0.023
TTTTTAAATC | 1 ± 0.044
TTTTTAACAG | 0.997 ± 0.021

Sequence | switch fluorescence ratio
TTTTTAAGCT | 1.02 ± 0.019
TTTTTAATCA | 0.987 ± 0.014
TTTTTAATGG | 1.01 ± 0.034
TTTTTAATTT | 0.993 ± 0.023
TTTTTACAGG | 1.13 ± 0.16
TTTTTACGAG | 0.988 ± 0.045
TTTTTACGTG | 0.969 ± 0.035
TTTTTACTCG | 0.9965 ± 0.005
TTTTTAGATT | 1.02 ± 0.031
TTTTTAGCAT | 1.04 ± 0.084
TTTTTAGCCC | 1.02 ± 0.053
TTTTTAGGCA | 1 ± 0.042
TTTTTAGGCG | 0.978 ± 0.028
TTTTTAGTTA | 0.981 ± 0.01
TTTTTAGTTC | 0.98 ± 0.027
TTTTTATAAA | 1.01 ± 0.039
TTTTTATAAC | 1 ± 0.031
TTTTTATACG | 0.984 ± 0.072
TTTTTATAGT | 1.02 ± 0.022
TTTTTATCTT | 1.03 ± 0.046
TTTTTATGGT | 0.984 ± 0.027
TTTTTCAATG | 0.979 ± 0.042
TTTTTCCATA | 1 ± 0.022
TTTTTCCCAT | 1.03 ± 0.014
TTTTTCCCCC | 1.04 ± 0.05

Sequence | switch fluorescence ratio
TTTTTCCGGA | 0.997 ± 0.048
TTTTTCCTAC | 1 ± 0.016
TTTTTCGACC | 1.01 ± 0.035
TTTTTCGG | 0.996 ± 0.025
TTTTTCGGCT | 0.985 ± 0.044
TTTTTCGGTA | 1.05 ± 0.038
TTTTTCGGTT | 0.998 ± 0.039
TTTTTCGTTG | 0.997 ± 0.049
TTTTTCTAAA | 0.9834 ± 0.0074
TTTTTCTCGG | 0.992 ± 0.01
TTTTTCTTCT | 1.31 ± 0.36
TTTTTGAAAG | 0.996 ± 0.013
TTTTTGAAGG | 0.992 ± 0.024
TTTTTGAATC | 0.983 ± 0.017
TTTTTGAGAA | 0.983 ± 0.033
TTTTTGATAT | 1.05 ± 0.056
TTTTTGATTG | 1.01 ± 0.014
TTTTTGCCGC | 1.02 ± 0.012
TTTTTGCCTT | 1 ± 0.024
TTTTTGCTGA | 1.01 ± 0.032
TTTTTGCTTG | 0.98 ± 0.029
TTTTTGGACG | 0.969 ± 0.081
TTTTTGGATC | 1 ± 0.025
TTTTTGGCGT | 1.02 ± 0.033
TTTTTGGGAG | 1.01 ± 0.024

Sequence | switch fluorescence ratio
TTTTTGGGCT | 0.996 ± 0.028
TTTTTGGGTG | 1.03 ± 0.058
TTTTTGGTA | 0.985 ± 0.011
TTTTTGGTAG | 1 ± 0.042
TTTTTGGTCG | 0.993 ± 0.086
TTTTTGGTCT | 0.997 ± 0.027
TTTTTGGTGG | 1 ± 0.032
TTTTTGTACT | 1.11 ± 0.083
TTTTTGTATC | 0.968 ± 0.022
TTTTTGTCAC | 1.03 ± 0.038
TTTTTGTGAT | 1.02 ± 0.032
TTTTTGTGGA | 1.03 ± 0.019
TTTTTGTGGT | 1 ± 0.036
TTTTTGTGTG | 0.993 ± 0.023
TTTTTGTTGA | 0.991 ± 0.026
TTTTTGTTTT | 1 ± 0.035
TTTTTTAAAA | 0.995 ± 0.03
TTTTTTAATT | 1.03 ± 0.071
TTTTTTACGA | 1.04 ± 0.028
TTTTTTACTA | 1.023 ± 0.0015
TTTTTTAGCG | 0.99 ± 0.029
TTTTTTATA | 0.996 ± 0.032
TTTTTTATAA | 1.01 ± 0.023
TTTTTTCAAT | 1.03 ± 0.029
TTTTTTCAGA | 0.975 ± 0.029
